The record followed here is paper PMC8131977 (Biochemistry and Biophysics Reports, 2021).

The target in the assay is T1, Bacillus licheniformis subtilisin A (Bacillus licheniformis, UniProt P00780 106-379).
T1 sequence (looked up): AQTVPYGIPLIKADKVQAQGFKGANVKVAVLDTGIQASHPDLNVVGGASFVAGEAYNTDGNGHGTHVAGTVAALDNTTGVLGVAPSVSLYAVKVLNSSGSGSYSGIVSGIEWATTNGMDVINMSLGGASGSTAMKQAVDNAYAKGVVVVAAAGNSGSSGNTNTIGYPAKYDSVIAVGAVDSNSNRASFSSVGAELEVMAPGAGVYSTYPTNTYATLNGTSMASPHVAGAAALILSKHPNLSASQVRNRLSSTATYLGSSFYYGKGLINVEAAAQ
In words: enzyme inhibition assay.

AEDCVGRKACTAEWYPVCGSDGVTYSNPCNFSAQQEQCDPNITIAHMGEC (natural protein, Cenchritis muricatus, UniProt P84755 1-50, looked up) [rCmPI-II R12A, alanine mutant at the P1 position of CmPI-II]: the “fold decrease of IC50 against rCmPI-II” value stood at 3 fold.
